{
  "source": "patent US6472178",
  "binders": {"B1": {"name": "recombinant rat CNTF (ciliary neurotrophic factor) (ligand)", "chain": "MAFAEQTPLTLHRRDLCSRSIWLARKIRSDLTALMESYVKHQGLNKNINLDSVDGVPVASTDRWSEMTEAELRQENLQAYRTFQGMLTKLLEDQRVHFTPTEGDFHQAIHTLMLQVSAFAYQLEELMVLLEQKIPENEADGMPATVGDGGLFEKKLWGLKVLQELSQWTVRSIHDLRVISSHQMGISALESHYGAKDKQM", "notes": "also called unlabelled rat CNTF"}},
  "key": {"[1]": {"target": "T1, rat CNTF receptor on rat superior cervical ganglia (SCG) neurons (rat, UniProt Q08406 23-342)", "T1 construct": "whole, on cells; Native neurons; also called rat receptor", "T1 sequence (looked up)": "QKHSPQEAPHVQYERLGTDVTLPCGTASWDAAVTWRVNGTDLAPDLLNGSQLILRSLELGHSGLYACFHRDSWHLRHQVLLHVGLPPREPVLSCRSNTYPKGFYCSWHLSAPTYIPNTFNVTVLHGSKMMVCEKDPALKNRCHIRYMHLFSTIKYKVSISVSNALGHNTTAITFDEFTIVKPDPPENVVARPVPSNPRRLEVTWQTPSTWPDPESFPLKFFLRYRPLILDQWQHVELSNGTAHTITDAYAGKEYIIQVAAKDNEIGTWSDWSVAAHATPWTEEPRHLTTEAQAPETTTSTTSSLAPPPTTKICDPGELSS", "assay": "competition with 125I-rat CNTF on rat SCG neurons", "experimental": "Reactions were incubated for 45 min at 0° C. followed by 15 min at room temperature and terminated by the addition of […] of 0.2 M glycine solution. After 15 min, 0.2 ml PBS containing 0.08% gelatin was also added and the mixture was passed through a Superdex-75 column (Pharmacia) to separate the labelled monomeric CNTF from dimeric and other multimeric derivatives. Percentage of incorporation was typically 20%, as determined by thin layer chromatography and the specific activity was typically around 1,000 Ci/mmole. […] Growth medium consisted of Ham's nutrient mixture F12 with 10% heat-inactivated fetal bovine serum (Hyclone), nerve growth factor (NGF) (100 ng/ml), penicillin (50 U/ml) and streptomycin (50 µg/ml). Cultures were maintained at 37° C. in a humidified 95% air/5% CO_2 atmosphere. Ganglion non-neuronal cells were eliminated by treatment with araC (10 µM) on days 1 and 3 of culture. Cultures were fed 3 times/week and were routinely used for binding assays within 2 weeks.\nBinding was performed directly on cell monolayers. Cells in culture wells were washed once with assay buffer consisting of phosphate buffered saline (PBS; pH 7.4), 0.1 mM bacitracin, 1 mM PMSF, 1 µg/ml leupeptin, and 1 mg/ml BSA. […] Non-specific binding was determined in the presence of 1,000-fold excess of unlabelled CNTF. […] Data were analyzed using the […] program (ISI, Philadelphia, Pa.)."}, "[2]": {"target": "T2, human CNTF receptor α-component on MG87/CNTFR fibroblasts (human, UniProt P26992 23-342)", "T2 construct": "whole, on cells; also called CNTFRα; MG87/huCNTFR", "T2 sequence (looked up)": "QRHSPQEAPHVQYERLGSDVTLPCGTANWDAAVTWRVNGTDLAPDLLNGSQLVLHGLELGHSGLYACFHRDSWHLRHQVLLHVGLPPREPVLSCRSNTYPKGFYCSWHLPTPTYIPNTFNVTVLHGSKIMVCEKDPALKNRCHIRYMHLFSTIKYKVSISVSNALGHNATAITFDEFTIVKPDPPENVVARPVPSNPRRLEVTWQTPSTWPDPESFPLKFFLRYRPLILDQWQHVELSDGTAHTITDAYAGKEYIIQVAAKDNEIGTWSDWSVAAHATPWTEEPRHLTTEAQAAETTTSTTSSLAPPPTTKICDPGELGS", "assay": "competition with 125I-rat CNTF on MG87/CNTFR cells"}},
  "data": [
    {"binder": "B1", "values": [
      {"measurement": "IC50", "setting": "[1]", "result": 0.28, "unit": "nM"},
      {"measurement": "IC50", "setting": "[2]", "result": 2.8, "unit": "nM"}
    ]}
  ]
}
